The values that follow come from patent publication US20210332141A1, “INSULIN-LIKE GROWTH FACTOR-1 RECEPTOR (IGF-1R) BINDING PROTEINS AND METHODS OF USE” (AMGEN INC., priority 2017, published 2021).

For orientation: Ki means a measure of affinity in units of concentration, obtained from inhibition or displacement. The low end stands for tighter binding, the high end for weaker binding. One may read the Kd as the constant that tells how readily two partners part at equilibrium. One may read the IC50 as the point on the concentration scale where inhibition reaches its midpoint.

For assay [1], the target named is murine IGF-1R(ECD)-C3-mFc (murine) (UniProt Q60751). As to the kind of experiment: IGEN ligand blocking, maximal inhibition of human Ru labeled IGF-1 binding to murine IGF-1R(ECD)-C3-mFc.
Assay [2] has the same target. As to the kind of experiment: IGEN ligand blocking, competitor human Ru labeled IGF-1 on murine IGF-1R(ECD)-C3-mFc.
The target is the same in assay [3]. As to the kind of experiment: IGEN ligand blocking, competitor human Ru labeled IGF-2 on murine IGF-1R(ECD)-C3-mFc.
The target is the same in assay [4]. The assay can be described thus: Biacore, kinetic method, murine IGF-1R(ECD)-C3-mFc.
Another assay deals with HER-2 (Homo sapiens, UniProt P04626). The note with it: cellular; read-out: IC50 against Others: HER-2; cited from earlier work.
Chain of HER-2 (P04626 23-1255, species assumed): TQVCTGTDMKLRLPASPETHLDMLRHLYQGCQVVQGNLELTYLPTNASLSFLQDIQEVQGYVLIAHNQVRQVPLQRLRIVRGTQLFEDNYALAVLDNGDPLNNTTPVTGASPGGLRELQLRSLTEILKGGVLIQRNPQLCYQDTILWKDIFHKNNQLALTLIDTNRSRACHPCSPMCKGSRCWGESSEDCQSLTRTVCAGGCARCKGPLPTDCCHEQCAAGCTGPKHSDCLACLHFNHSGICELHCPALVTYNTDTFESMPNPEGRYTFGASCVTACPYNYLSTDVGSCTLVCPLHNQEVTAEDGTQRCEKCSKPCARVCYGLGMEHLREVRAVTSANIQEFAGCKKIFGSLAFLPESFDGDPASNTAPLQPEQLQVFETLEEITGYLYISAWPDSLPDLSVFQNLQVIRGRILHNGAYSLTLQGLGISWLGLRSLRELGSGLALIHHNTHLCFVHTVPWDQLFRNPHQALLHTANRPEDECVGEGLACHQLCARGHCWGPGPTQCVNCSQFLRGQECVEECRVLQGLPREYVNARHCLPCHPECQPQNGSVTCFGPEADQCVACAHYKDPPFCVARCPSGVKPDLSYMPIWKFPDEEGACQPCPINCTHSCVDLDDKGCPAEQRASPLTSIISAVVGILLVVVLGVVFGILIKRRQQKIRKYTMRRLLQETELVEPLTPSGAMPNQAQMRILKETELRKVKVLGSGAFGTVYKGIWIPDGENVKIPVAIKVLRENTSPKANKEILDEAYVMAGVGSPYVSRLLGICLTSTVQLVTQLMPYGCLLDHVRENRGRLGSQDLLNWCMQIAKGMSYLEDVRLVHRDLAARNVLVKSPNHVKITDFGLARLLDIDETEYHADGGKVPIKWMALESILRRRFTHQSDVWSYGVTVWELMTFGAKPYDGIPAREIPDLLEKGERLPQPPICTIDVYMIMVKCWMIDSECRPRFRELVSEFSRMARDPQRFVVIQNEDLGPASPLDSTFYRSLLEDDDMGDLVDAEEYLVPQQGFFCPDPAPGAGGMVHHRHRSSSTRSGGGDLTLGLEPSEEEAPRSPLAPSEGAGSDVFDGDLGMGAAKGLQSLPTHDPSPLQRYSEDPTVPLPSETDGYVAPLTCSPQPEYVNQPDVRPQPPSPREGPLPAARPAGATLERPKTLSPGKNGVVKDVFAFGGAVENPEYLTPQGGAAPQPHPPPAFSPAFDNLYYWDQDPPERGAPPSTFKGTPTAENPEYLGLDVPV

Chain of murine IGF-1R(ECD)-C3-mFc (murine) (Q60751 31-936): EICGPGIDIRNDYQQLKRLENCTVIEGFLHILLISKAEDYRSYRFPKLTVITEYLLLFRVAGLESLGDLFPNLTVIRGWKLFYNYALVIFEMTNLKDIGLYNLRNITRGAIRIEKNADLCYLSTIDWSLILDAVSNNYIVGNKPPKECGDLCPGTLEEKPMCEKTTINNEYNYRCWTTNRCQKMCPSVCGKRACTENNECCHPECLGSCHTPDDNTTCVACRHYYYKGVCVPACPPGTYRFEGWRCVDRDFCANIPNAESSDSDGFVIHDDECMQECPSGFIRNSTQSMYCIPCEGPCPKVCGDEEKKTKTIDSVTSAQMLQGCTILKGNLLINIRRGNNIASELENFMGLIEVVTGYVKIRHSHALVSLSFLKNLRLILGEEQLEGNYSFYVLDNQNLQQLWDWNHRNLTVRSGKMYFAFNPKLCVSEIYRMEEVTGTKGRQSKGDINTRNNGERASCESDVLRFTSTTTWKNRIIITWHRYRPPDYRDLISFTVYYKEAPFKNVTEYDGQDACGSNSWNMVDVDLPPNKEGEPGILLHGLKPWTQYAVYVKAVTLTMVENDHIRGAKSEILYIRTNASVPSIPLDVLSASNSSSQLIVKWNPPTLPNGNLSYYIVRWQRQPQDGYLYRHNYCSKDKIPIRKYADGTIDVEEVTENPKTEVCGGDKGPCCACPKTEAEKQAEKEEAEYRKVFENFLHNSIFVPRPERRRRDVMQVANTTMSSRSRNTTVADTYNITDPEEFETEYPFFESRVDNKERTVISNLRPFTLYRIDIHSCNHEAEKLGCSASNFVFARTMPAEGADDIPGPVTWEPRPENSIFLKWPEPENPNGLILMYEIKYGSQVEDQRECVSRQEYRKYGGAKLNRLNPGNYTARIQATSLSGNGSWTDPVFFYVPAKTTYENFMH

On to αIR3 (antibody), for which the IGF-1 Max (%) in assay [1] was 31%. Besides, the Ki in assay [2] and in assay [3] was more than 1 µM in each case. The compound also had a Kd in assay [4] of 0.00033 µM.

Regarding `C[C@H](Cc1ccc(O)c(O)c1)[C@@H](C)Cc1ccc(O)c(O)c1` [INSM-18, nondihydroguaiaretic acid], the IC50 on HER-2 was 15 µM.
